To fix the notation:
B1: His-tagged Ahp1, wild-type (recombinant) [S. cerevisiae] / itself (parent)
chain: MSDLVNKKFPAGDYKFQYIAISQSDADSESCKMPQTVEWSKLISENKKVIITGAPAAFSPTCTVSHIPGYINYLDELVKEKEVDQVIVVTVDNPFANQAWAKSLGVKDTTHIKFASDPGCAFTKSIGFELAVGDGVYWSGRWAMVVENGIVTYAAKETNPGTDVTVSSVESVLAHL

In this test the parent is B1. Briefly: SEC-MALS. To be noted: with itself.
Regarding chain 1 F58A F95A, the screen value amounted to 20.4 kDa.

In the case of chain 1 F95A, the screen value came to 31.6 kDa.

chain 1 F58A: the screen value was 22.8 kDa.
